Data on two molecules can be found in patent US20240218071A1.

Assay [1] concerns the target P17-Fc fusion protein (human CD40 extracellular domain fused to human IgG1 Fc) (human) (UniProt P25942). The experiment in a line: ELISA, P17-Fc against titrated antibody.
In assay [2] the target is biotinylated P17-Fc fusion protein (human) (UniProt P25942). The experiment in a line: ELISA, biotinylated P17-Fc against titrated antibody.
The target in assay [3] is P17-Fc fusion protein (human CD40 extracellular domain fused to human IgG1 Fc) (human) (UniProt P25942). The experiment in a line: ELISA, unbiotinylated P17-Fc against titrated antibody.
Sequence of P17-Fc fusion protein (human CD40 extracellular domain fused to human IgG1 Fc) (human) (P25942 21-193 limits assumed): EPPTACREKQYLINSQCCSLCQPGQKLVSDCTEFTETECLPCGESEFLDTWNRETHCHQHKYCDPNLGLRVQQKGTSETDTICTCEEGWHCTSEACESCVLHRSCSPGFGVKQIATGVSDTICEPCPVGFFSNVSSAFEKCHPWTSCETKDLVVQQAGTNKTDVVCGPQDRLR
Assay [4] has the same target. Kind of assay: ELISA on P17-Fc, positive control.
Assay [5] deals with human CD40 expressed on the cell surface (human) (UniProt P25942). Kind of assay: flow cytometry on CHO-K-huCD40 cells, APC anti-human IgG Fc secondary antibody.
Sequence of human CD40 expressed on the cell surface (human) (P25942 21-277): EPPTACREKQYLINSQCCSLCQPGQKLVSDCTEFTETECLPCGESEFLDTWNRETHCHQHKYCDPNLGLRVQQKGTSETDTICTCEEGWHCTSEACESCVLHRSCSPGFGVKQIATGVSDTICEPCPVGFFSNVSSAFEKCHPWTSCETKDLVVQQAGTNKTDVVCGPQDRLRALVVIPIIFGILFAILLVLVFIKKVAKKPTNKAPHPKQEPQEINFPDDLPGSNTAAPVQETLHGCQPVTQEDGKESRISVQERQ
For assay [6] the target is unchanged. The experiment in a line: blocking assay by flow cytometry: CHO-K-huCD40 cells with titrated antibody, then CD40L-biotin (200 ng/mL) and PE-streptavidin; blocked ligand CD40L.

Sequence of biotinylated P17-Fc fusion protein (human) (P25942 21-193 limits assumed): as the sequence (P25942 21-193 limits assumed) above

B1: Dacetuzumab (antibody, INN chains, looked up, V domains shown)
VH: EVQLVESGGGLVQPGGSLRLSCAASGYSFTGYYIHWVRQAPGKGLEWVARVIPNAGGTSYNQKFKGRFTLSVDNSKNTAYLQMNSLRAEDTAVYYCAREGIYWWGQGTLVTVSS
VL: DIQMTQSPSSLSASVGDRVTITCRSSQSLVHSNGNTFLHWYQQKPGKAPKLLIYTVSNRFSGVPSRFSGSGSGTDFTLTISSLQPEDFATYFCSQTTHVPWTFGQGTKVEIKR
With B1, the EC50 (read off the curve) in assay [1] was 0.3 µg/mL; in assay [2] it was 0.08 µg/mL; in assay [3], 0.08 µg/mL.

B2: Bleslumab (antibody, INN chains, looked up, V domains shown)
VH: QLQLQESGPGLLKPSETLSLTCTVSGGSISSPGYYGGWIRQPPGKGLEWIGSIYKSGSTYHNPSLKSRVTISVDTSKNQFSLKLSSVTAADTAVYYCTRPVVRYFGWFDPWGQGTLVTVSS
VL: AIQLTQSPSSLSASVGDRVTITCRASQGISSALAWYQQKPGKAPKLLIYDASNLESGVPSRFSGSGSGTDFTLTISSLQPEDFATYYCQQFNSYPTFGQGTKVEIK
Turning to B2, the concentration giving a half-maximal response (EC50) in assay [4] was found to be 0.047 µg/mL. Further, the concentration giving a half-maximal response (EC50 (read off the curve)) in assay [1] was 0.2 µg/mL; in assay [2], 0.08 µg/mL; in assay [3], 0.08 µg/mL; in assay [5], 0.7 µg/mL. In addition, the IC50 (read off the curve) in assay [6] was 1 µg/mL.
